{"source": "the Human Domainome abundance scans (Beltran et al. 2025)", "parents": {"B1": {"name": "Gamma-crystallin C, residues 91 to 170; numbered along this chain, P07315 (parent)", "chain": "RLYEREDHKGLMMELSEDCPSIQDRFHLSEIRSLHVLEGCWVLYELPNYRGRQYLLRPQEYRRCQDWGAMDAKAGSLRRV"}}, "note": "± gives the uncertainty stated by the source.", "data": [{"variants_of": "B1", "assay": "abundance fitness (aPCA) (normalised: wild type 0, dead -1); higher = more abundant; growth selection in yeast, the domain comes from the species named", "settings": "Homo sapiens", "values": [{"variant": "L11V", "abundance fitness": "-0.059 ± 0.055"}, {"variant": "L11W", "abundance fitness": "-0.289 ± 0.067"}, {"variant": "L11T", "abundance fitness": "-0.049 ± 0.082"}, {"variant": "R25A", "abundance fitness": "-0.086 ± 0.062"}, {"variant": "R25K", "abundance fitness": "-0.07 ± 0.063"}, {"variant": "R25S", "abundance fitness": "-0.078 ± 0.072"}, {"variant": "R25G", "abundance fitness": "-0.602 ± 0.069"}, {"variant": "R25V", "abundance fitness": "-0.025 ± 0.058"}, {"variant": "R25Q", "abundance fitness": "-0.179 ± 0.1"}, {"variant": "R25Y", "abundance fitness": "-0.463 ± 0.15"}, {"variant": "R25I", "abundance fitness": "-0.598 ± 0.3"}, {"variant": "R25T", "abundance fitness": "-0.148 ± 0.089"}, {"variant": "R25W", "abundance fitness": "-0.134 ± 0.053"}, {"variant": "R25P", "abundance fitness": "-0.736 ± 0.38"}, {"variant": "R25L", "abundance fitness": "-0.184 ± 0.085"}, {"variant": "R25D", "abundance fitness": "-0.396 ± 0.19"}, {"variant": "R25C", "abundance fitness": "-0.339 ± 0.15"}, {"variant": "S16Y", "abundance fitness": "-0.094 ± 0.14"}, {"variant": "S16P", "abundance fitness": "-0.859 ± 0.23"}, {"variant": "S16K", "abundance fitness": "-0.135 ± 0.13"}, {"variant": "S16L", "abundance fitness": "-0.276 ± 0.063"}, {"variant": "S16A", "abundance fitness": "-0.043 ± 0.075"}, {"variant": "S16R", "abundance fitness": "-0.082 ± 0.054"}, {"variant": "S16Q", "abundance fitness": "-0.132 ± 0.11"}, {"variant": "S16G", "abundance fitness": "-0.082 ± 0.066"}, {"variant": "S16D", "abundance fitness": "-0.029 ± 0.088"}, {"variant": "S16M", "abundance fitness": "-0.365 ± 0.32"}, {"variant": "S16I", "abundance fitness": "-0.102 ± 0.14"}, {"variant": "S16T", "abundance fitness": "-0.129 ± 0.1"}, {"variant": "S16C", "abundance fitness": "-0.096 ± 0.07"}, {"variant": "S16E", "abundance fitness": "0.118 ± 0.089"}, {"variant": "S16N", "abundance fitness": "-0.025 ± 0.15"}, {"variant": "S16F", "abundance fitness": "-0.123 ± 0.084"}, {"variant": "D24E", "abundance fitness": "0.045 ± 0.073"}, {"variant": "D24L", "abundance fitness": "-0.31 ± 0.067"}, {"variant": "D24C", "abundance fitness": "-0.274 ± 0.1"}, {"variant": "D24A", "abundance fitness": "-0.008 ± 0.063"}, {"variant": "D24N", "abundance fitness": "-0.183 ± 0.13"}, {"variant": "D24Q", "abundance fitness": "-0.213 ± 0.12"}, {"variant": "D24Y", "abundance fitness": "-0.35 ± 0.098"}, {"variant": "D24K", "abundance fitness": "-0.256 ± 0.17"}, {"variant": "D24V", "abundance fitness": "-0.396 ± 0.067"}, {"variant": "D24G", "abundance fitness": "-0.167 ± 0.043"}, {"variant": "D24W", "abundance fitness": "-0.516 ± 0.088"}, {"variant": "D24P", "abundance fitness": "-0.951 ± 0.5"}, {"variant": "D24S", "abundance fitness": "-0.067 ± 0.052"}, {"variant": "D24M", "abundance fitness": "-0.194 ± 0.11"}, {"variant": "D24T", "abundance fitness": "-0.202 ± 0.18"}, {"variant": "D24H", "abundance fitness": "-0.087 ± 0.24"}, {"variant": "L28T", "abundance fitness": "-0.601 ± 0.22"}, {"variant": "L28G", "abundance fitness": "-0.364 ± 0.061"}, {"variant": "L28V", "abundance fitness": "-0.035 ± 0.054"}, {"variant": "L28E", "abundance fitness": "-0.451 ± 0.089"}, {"variant": "L28H", "abundance fitness": "-0.448 ± 0.23"}, {"variant": "L28I", "abundance fitness": "0.093 ± 0.15"}, {"variant": "L28P", "abundance fitness": "-0.864 ± 0.14"}, {"variant": "L28A", "abundance fitness": "-0.129 ± 0.055"}, {"variant": "L28K", "abundance fitness": "-0.022 ± 0.14"}, {"variant": "L28Q", "abundance fitness": "-0.337 ± 0.13"}, {"variant": "L28W", "abundance fitness": "0.134 ± 0.14"}, {"variant": "L28Y", "abundance fitness": "-0.252 ± 0.14"}, {"variant": "L28S", "abundance fitness": "-0.251 ± 0.072"}, {"variant": "L28N", "abundance fitness": "-0.697 ± 0.23"}, {"variant": "L28M", "abundance fitness": "-0.038 ± 0.099"}, {"variant": "L28F", "abundance fitness": "-0.335 ± 0.18"}, {"variant": "L28R", "abundance fitness": "-0.05 ± 0.06"}, {"variant": "E17T", "abundance fitness": "-0.231 ± 0.078"}, {"variant": "E17L", "abundance fitness": "-0.544 ± 0.09"}, {"variant": "E17W", "abundance fitness": "-0.187 ± 0.095"}, {"variant": "E17R", "abundance fitness": "-0.422 ± 0.062"}, {"variant": "E17D", "abundance fitness": "-0.035 ± 0.09"}, {"variant": "E17Q", "abundance fitness": "-0.089 ± 0.073"}, {"variant": "E17G", "abundance fitness": "-0.132 ± 0.051"}, {"variant": "E17V", "abundance fitness": "-0.253 ± 0.064"}, {"variant": "E17N", "abundance fitness": "-0.477 ± 0.27"}, {"variant": "E17C", "abundance fitness": "-0.168 ± 0.091"}, {"variant": "E17Y", "abundance fitness": "-0.526 ± 0.19"}, {"variant": "E17A", "abundance fitness": "-0.18 ± 0.074"}, {"variant": "E17H", "abundance fitness": "-0.564 ± 0.17"}, {"variant": "E17S", "abundance fitness": "-0.155 ± 0.057"}, {"variant": "E17I", "abundance fitness": "-0.533 ± 0.22"}, {"variant": "E17F", "abundance fitness": "-0.516 ± 0.11"}, {"variant": "E17P", "abundance fitness": "-0.91 ± 0.32"}, {"variant": "E17K", "abundance fitness": "-0.416 ± 0.1"}, {"variant": "C19S", "abundance fitness": "-0.92 ± 0.19"}, {"variant": "C19T", "abundance fitness": "-0.535 ± 0.036"}, {"variant": "C19E", "abundance fitness": "-0.369 ± 0.11"}, {"variant": "C19L", "abundance fitness": "-0.659 ± 0.099"}, {"variant": "C19A", "abundance fitness": "-0.836 ± 0.15"}, {"variant": "C19W", "abundance fitness": "-0.807 ± 0.14"}, {"variant": "C19R", "abundance fitness": "-0.886 ± 0.11"}, {"variant": "C19Y", "abundance fitness": "-0.712 ± 0.14"}, {"variant": "C19P", "abundance fitness": "-0.902 ± 0.24"}, {"variant": "C19F", "abundance fitness": "-0.969 ± 0.41"}, {"variant": "C19M", "abundance fitness": "-0.761 ± 0.19"}, {"variant": "C19V", "abundance fitness": "-0.43 ± 0.074"}, {"variant": "C19K", "abundance fitness": "-0.623 ± 0.2"}, {"variant": "H27Q", "abundance fitness": "-0.034 ± 0.1"}, {"variant": "H27K", "abundance fitness": "-0.137 ± 0.13"}, {"variant": "H27E", "abundance fitness": "-0.119 ± 0.062"}, {"variant": "H27T", "abundance fitness": "-0.345 ± 0.096"}, {"variant": "H27V", "abundance fitness": "-0.602 ± 0.093"}, {"variant": "H27R", "abundance fitness": "-0.037 ± 0.059"}, {"variant": "H27F", "abundance fitness": "-0.414 ± 0.14"}, {"variant": "H27W", "abundance fitness": "-0.441 ± 0.068"}, {"variant": "H27N", "abundance fitness": "0.075 ± 0.1"}, {"variant": "H27L", "abundance fitness": "-0.18 ± 0.056"}, {"variant": "H27I", "abundance fitness": "-0.739 ± 0.4"}, {"variant": "H27S", "abundance fitness": "-0.079 ± 0.053"}, {"variant": "H27M", "abundance fitness": "-0.075 ± 0.094"}, {"variant": "H27G", "abundance fitness": "0.047 ± 0.037"}, {"variant": "H27C", "abundance fitness": "-0.115 ± 0.26"}, {"variant": "H27A", "abundance fitness": "-0.069 ± 0.06"}, {"variant": "D18K", "abundance fitness": "-0.934 ± 0.29"}, {"variant": "D18V", "abundance fitness": "-1.01 ± 0.17"}, {"variant": "D18C", "abundance fitness": "-0.676 ± 0.25"}, {"variant": "D18E", "abundance fitness": "-0.675 ± 0.11"}, {"variant": "D18S", "abundance fitness": "-0.142 ± 0.055"}, {"variant": "D18R", "abundance fitness": "-0.938 ± 0.15"}, {"variant": "D18I", "abundance fitness": "-0.758 ± 0.23"}, {"variant": "D18T", "abundance fitness": "-0.805 ± 0.17"}, {"variant": "D18P", "abundance fitness": "-0.66 ± 0.29"}, {"variant": "D18M", "abundance fitness": "-0.496 ± 0.16"}, {"variant": "D18A", "abundance fitness": "-0.462 ± 0.088"}, {"variant": "D18Q", "abundance fitness": "-0.935 ± 0.35"}, {"variant": "D18L", "abundance fitness": "-0.956 ± 0.2"}, {"variant": "D18Y", "abundance fitness": "-0.748 ± 0.36"}, {"variant": "D18G", "abundance fitness": "-0.936 ± 0.097"}, {"variant": "D18F", "abundance fitness": "-0.955 ± 0.24"}, {"variant": "D18W", "abundance fitness": "-0.997 ± 0.23"}, {"variant": "I31S", "abundance fitness": "-0.665 ± 0.16"}, {"variant": "I31D", "abundance fitness": "-0.843 ± 0.21"}, {"variant": "I31A", "abundance fitness": "-0.611 ± 0.074"}, {"variant": "I31K", "abundance fitness": "-1.02 ± 0.49"}, {"variant": "I31E", "abundance fitness": "-0.987 ± 0.4"}, {"variant": "I31C", "abundance fitness": "-0.833 ± 0.28"}, {"variant": "I31W", "abundance fitness": "-0.848 ± 0.16"}, {"variant": "I31G", "abundance fitness": "-1.01 ± 0.15"}, {"variant": "I31R", "abundance fitness": "-0.776 ± 0.15"}, {"variant": "I31T", "abundance fitness": "-0.789 ± 0.14"}, {"variant": "I31Q", "abundance fitness": "-0.992 ± 0.2"}, {"variant": "I31P", "abundance fitness": "-0.951 ± 0.32"}, {"variant": "I31N", "abundance fitness": "-0.912 ± 0.17"}, {"variant": "M13A", "abundance fitness": "-0.085 ± 0.056"}, {"variant": "M13H", "abundance fitness": "-0.283 ± 0.11"}, {"variant": "M13R", "abundance fitness": "-0.261 ± 0.051"}, {"variant": "M13I", "abundance fitness": "-0.148 ± 0.091"}, {"variant": "M13V", "abundance fitness": "-0.002 ± 0.071"}, {"variant": "M13Y", "abundance fitness": "-0.112 ± 0.15"}, {"variant": "M13N", "abundance fitness": "-0.24 ± 0.1"}, {"variant": "M13F", "abundance fitness": "-0.253 ± 0.15"}, {"variant": "M13E", "abundance fitness": "-0.327 ± 0.14"}, {"variant": "M13S", "abundance fitness": "-0.441 ± 0.074"}, {"variant": "M13W", "abundance fitness": "-0.018 ± 0.074"}, {"variant": "M13Q", "abundance fitness": "-0.22 ± 0.085"}, {"variant": "M13C", "abundance fitness": "-0.118 ± 0.12"}, {"variant": "M13D", "abundance fitness": "-0.706 ± 0.22"}, {"variant": "M13L", "abundance fitness": "-0.078 ± 0.065"}, {"variant": "M13G", "abundance fitness": "-0.07 ± 0.052"}, {"variant": "M13P", "abundance fitness": "-1 ± 0.49"}, {"variant": "S21T", "abundance fitness": "-0.456 ± 0.11"}, {"variant": "S21G", "abundance fitness": "-0.613 ± 0.065"}, {"variant": "S21H", "abundance fitness": "-0.184 ± 0.14"}, {"variant": "S21K", "abundance fitness": "-0.472 ± 0.19"}, {"variant": "S21Y", "abundance fitness": "-0.762 ± 0.18"}, {"variant": "S21I", "abundance fitness": "-0.842 ± 0.14"}, {"variant": "S21E", "abundance fitness": "-0.554 ± 0.12"}]}]}
